Target: T1, recombinant FGFR1c extracellular domain protein (Homo sapiens, UniProt P11362)
T1 construct: FGF receptor 1, 'c' splice isoform, human, extracellular domain; also called human FGFR1c
Test: SPR; kinetic-binding assay on Biacore T200: His-tagged human β-Klotho and FGFR1c captured (about 40 RU and 60 RU) on immobilised mouse anti-His antibody (CM5); 39F7 (100 nM) and FGF21 (500 nM) injected in PBS, 0.1 mg/ml BSA, 0.005% Surfactant P20
Settings: both partners purified

T1 sequence (P11362 22-376): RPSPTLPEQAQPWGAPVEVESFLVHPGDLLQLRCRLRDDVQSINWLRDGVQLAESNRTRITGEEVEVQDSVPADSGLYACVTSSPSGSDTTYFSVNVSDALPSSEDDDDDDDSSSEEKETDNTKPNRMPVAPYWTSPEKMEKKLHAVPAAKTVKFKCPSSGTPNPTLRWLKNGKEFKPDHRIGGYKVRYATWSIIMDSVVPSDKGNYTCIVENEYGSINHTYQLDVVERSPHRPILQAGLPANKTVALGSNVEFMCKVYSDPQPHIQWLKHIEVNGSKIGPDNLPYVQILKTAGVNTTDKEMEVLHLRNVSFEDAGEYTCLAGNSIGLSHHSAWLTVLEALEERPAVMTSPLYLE

B1: 39F7 agonistic monoclonal antibody against β-Klotho (full IgG) (antibody, V domains shown)
VH: QVQLVESGGGVVQPGRSLRLSCAASGFTFSNYGIHWVRQAPGKGLEWVAVIWYDGSIKYYADSVKGRFTISRDNSKNTLYLQMNSLRAEDTAVYYCARDRAAAGLHYYYGMDVWGQGTTVTVSS
VL: not shown
notes: Identified from an immunisation campaign in XenoMouse with a complex of β-Klotho and FGFR1c; also called mAb 39F7; 39F7 IgG; copies: 2 + 2
B1: no binding (tested: 100 nM).

Reference: publication PMC6153294 (The Journal of Biological Chemistry, 2018)
